Test results: publication PMC7677926

Target: L-ferritin-M6A (mouse L-ferritin with the Mms6 iron-binding segment M6A at its C-terminus behind a glycine spacer), with the N-terminal 6-His tag (mouse | Magnetospirillum magneticum AMB-1) (UniProt Q2W8R5)
Experiment: SEC; HiLoad 26/60 Superdex 200; 20 mM Bis-Tris pH 5.8, 500 mM KCl, 10% glycerol; oligomer judged by elution volume

- stoichiometry N: 24
Substance: L-ferritin-M6A (mouse L-ferritin with the Mms6 iron-binding segment M6A at its C-terminus behind a glycine spacer), with the N-terminal 6-His tag (from UniProt Q2W8R5 116-127)
